Patent US8088412B2, “Intralymphatic chemotherapy drug carriers” (priority 2008, dated 2012)
“Also recorded” adds a separate entry of the source.

What was measured:
[1] = set-up: species or system Sprague-Dawley rats; conditions: rat, in vivo, sc
Method: Sprague-Dawley rats (female, 200-250 g) were cannulated in the left jugular vein under isoflurane and allowed to recover overnight. […] Subcutaneous injections were given in the uppermost right mammary fatpad of the animal. Whole blood was withdrawn (100 μl) from the cannula at 0, 5 min, 0.5, 1, 2, 4, 6, 12, 24, 48 and 96 hrs after dosing and placed into 2-ml centrifuge tubes pretreated with heparin. The cannula was washed before and after withdrawal with saline and then heparin locked. The whole blood was centrifuged at 17,000×g for 5 mins, and the plasma was frozen at −80° C. until analysis. Animals were euthanized […]. The right ipsilateral axilla nodes (treated side), left contralateral axilla nodes (control side), and major organs (liver, kidneys, heart, spleen, lungs, brain, muscle, bladder) were excised; washed with 0.9% saline; and stored at −80° C. until analysis. […] Typically, 50 mg of tissue sample was digested using 1.5 ml of 6.7% nitric acid for 2 hours at 80° C. After digestion, samples were homogenized (Tissue Tearor; BioSpec Products Inc., Bartlesville, Okla.) and centrifuged. The supernatant and plasma samples were analyzed by AAS as described in the Synthesis section.
In vitro release samples (n=3) and plasma samples (n=5) were diluted 200-fold and 10-fold, respectively, with 0.1% nitric acid for analysis. […]

[2] = Long-term toxicology: pathological examination (H&E) at 30 days; assay type: in vivo, Sprague-Dawley rats; conditions: for lymphoid tissue histology (H&E) / underlying tissue at injection site: 30 days post injection; for brain tissue histology (H&E) / kidney tissue histology (H&E) / liver tissue histology (H&E): 30 days post single injection
Method: Each animal was administered a single bolus dose at the beginning of the 30-day study period. […] In order to reduce the stress to animals, subjects were housed in metabolic cages for 12 hrs to collect approximately 5 ml of urine and then returned to cages with bedding until the next collection period. Urine samples were centrifuged at 17,000×g for 5 mins and stored in −80° C. freezer until creatinine analysis.
The animals were euthanized at the end of the study (30 days) and the liver, bilateral kidneys, spleen, lungs, heart, right (ipsilateral) and left (contralateral) axillary nodes, and brain were excised intact and stored in 80% alcoholic formalin solution overnight for fixation before slide mounting. Mounting using haematoxylin & eosin (H&E) staining were conducted by Veterinary Lab Resources (Kansas City, Kans.). The pathological examination was performed by a blinded board-certified veterinarian pathologist (University of Kansas Medical Center, Kansas City, Kans.).

[3] = Long-term toxicology: urine creatinine; assay type: in vivo, Sprague-Dawley rats; conditions: 3.3 mg/kg subcutaneous, single dose
Method: Each animal was administered a single bolus dose at the beginning of the 30-day study period. […] Urine samples were centrifuged at 17,000×g for 5 mins and stored in −80° C. freezer until creatinine analysis.
Urine creatinine was analyzed using the QuantiChrom™ Creatinine Assay Kit according to the manufacturer's instructions (BioAssay Systems, Hayward, Calif.). Creatinine concentration of the sample was calculated as (ODSAMPLE 5-ODSAMPLE 1) (ODSTD 5-ODSTD 1)×[STD] (mg/dL). ODSAMPLE5 ODSAMPLE1, ODSTD5, and ODSTD1 are OD510nm values of sample and standard at 5 min and 1 min, respectively.

[PtCl(H2O)(NH3)2]OOCO-HA [HA-cisplatin]
delay before plasma platinum peaked and plateaued-off [1]: 2 h | lymphoid tissue histology (H&E) ([2]; 1 mg/kg subcutaneous): normal findings | underlying tissue at injection site ([2]; 1 mg/kg subcutaneous): normal findings | brain tissue histology (H&E) ([2]; 1 mg/kg subcutaneous): normal findings | kidney tissue histology (H&E) ([2]; 1.0 mg/kg subcutaneous): normal appearance except for minimal renal tubular cell swelling and degeneration | liver tissue histology (H&E) ([2]; 1.0 mg/kg subcutaneous): Very mild changes; also recorded: normal appearance | lymphoid tissue histology (H&E) ([2]; 3.3 mg/kg subcutaneous): Very mild changes; also recorded: normal findings | underlying tissue at injection site ([2]; 3.3 mg/kg subcutaneous): normal findings | brain tissue histology (H&E) ([2]; 3.3 mg/kg subcutaneous): normal findings | kidney tissue histology (H&E) ([2]; 3.3 mg/kg subcutaneous): fairly normal appearance except for minor foci of tubular cell necrosis at the corticomedullary junction | liver tissue histology (H&E) ([2]; 3.3 mg/kg subcutaneous): Mild degeneration with some sinusoidal necroses; also recorded: fairly normal appearance except for very mild degeneration | animals diagnosed with mild renal necrosis ([2]; high dose (3.3 mg/kg) subcutaneous, 30 days, of 5): 20% | animals with renal necrosis ([2]; low dose (1.0 mg/kg) subcutaneous, 30 days): none | urine creatinine levels [3]: remained near pre-dosing levels
